# Measurements reported in the supplement of paper PMC9732359.
# ± gives the uncertainty stated by the source.
# Experiment: protein stability index of a GFP-peptide fusion (yeast GPS) (PSI 1-4); higher = more stable; sorted into four equal gates, so the index is relative within each strain
# Method in brief: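 Peptides tiling yeast proteins in 17-residue segments were fused downstream of GFP, with Cherry expressed from the same plasmid. As a pooled library in yeast, mid-log cultures grown in leucine-free medium were sorted into four equal gates by GFP/Cherry fluorescence ratio. Gate plasmids were PCR-amplified and Illumina-sequenced, and barcodes linked reads to strains. Each peptide received a protein stability index equal to the sum of each gate's read frequency times its gate number.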
Sequence,protein stability index (doa10∆),protein stability index (pdr5∆),protein stability index (san1∆),protein stability index (ubr1∆)
DFSARTVISGDPNLELD [RPO21],3.29 ± 0.22,2.79 ± 0.21,2.58 ± 0.15,2.47 ± 0.13
DFYVVMNRPGARVTRRK [RPL11A],3.22 ± 0.17,2.86 ± 0.15,3.28 ± 0.061,3.32 ± 0.11
DGEGKVDSISLHKIFYK [YCG1],2.78 ± 0.087,3.24 ± 0.064,3.13 ± 0.048,2.94 ± 0.063
DGGLFTLFVRDQDSAVV [QCR2],3.04 ± 0.11,3.16 ± 0.078,3.25 ± 0.059,3.32 ± 0.057
DGHLQFLNDVIPTTKNL [DLS1],2.96 ± 0.094,3.05 ± 0.068,2.8 ± 0.072,3.04 ± 0.073
DGSQQNLQQDKTNFQDV [REC8],3.23 ± 0.071,3.38 ± 0.054,3.42 ± 0.068,3.3 ± 0.038
DHKRFIVFHNEFSEHTF [DIS3],2.55 ± 0.042,2.92 ± 0.048,2.85 ± 0.046,3.02 ± 0.038
DIFSNLSSDDLLGKESF [YCS4],2.87 ± 0.05,2.24 ± 0.05,2.95 ± 0.044,2.86 ± 0.034
DILQITKKPLMVKNVKP [SIR4],2.79 ± 0.063,2.72 ± 0.049,2.55 ± 0.069,2.63 ± 0.062
DILSQILYGLVDKGAIM [YJL039C/NUP192],2.87 ± 0.11,2.87 ± 0.25,2.95 ± 0.19,2.79 ± 0.28
DISATQLPKQLWRNFCR [ITC1],2.61 ± 0.054,2.68 ± 0.048,2.71 ± 0.035,2.8 ± 0.036
DIWSISKKRQAEKLVPL [YML031W/NDC1],2.64 ± 0.089,2.78 ± 0.076,2.35 ± 0.073,2.55 ± 0.062
DKDNAEKTLGKSLSKAI [RPN7],2.27 ± 0.12,2.67 ± 0.21,,
DKDSTKEVASLPNKSTI [FAS2],3.13 ± 0.089,3.1 ± 0.12,3.02 ± 0.072,3.21 ± 0.14
DKELRKTKFQYKFLDQN [YIL149C/MLP2],2.72 ± 0.084,2.96 ± 0.075,2.96 ± 0.064,2.98 ± 0.059
DLAERASELDESKDSIQ [SMC3],3.06 ± 0.093,3.1 ± 0.09,2.83 ± 0.17,3.17 ± 0.06
DLINILEKKGFSEVYEY [LIN1],3.44 ± 0.17,3.21 ± 0.29,3.3 ± 0.099,3.17 ± 0.12
DLKAQFQELDSKKQRNN [RPN9],3.21 ± 0.088,3.2 ± 0.08,3.09 ± 0.078,3.33 ± 0.052
DLKEGLQDLSRYSRQFI [GRR1],3.07 ± 0.062,2.24 ± 0.058,3.02 ± 0.038,3.29 ± 0.035
DLKKLNLNVYIQVFEKP [CDC53],2.23 ± 0.11,2.5 ± 0.17,2.33 ± 0.27,2.78 ± 0.09
DLKLPPMDAYLKLNHII [SNU114],3.09 ± 0.28,2.94 ± 0.18,2.52 ± 0.099,2.68 ± 0.12
DLKPANIMVTIDGCVKI [SSN3],2.58 ± 0.29,1.83 ± 0.16,,1.69 ± 0.25
DLKSKADKLADMANEII [RRP6],3.38 ± 0.15,3.17 ± 0.12,3.19 ± 0.082,3.16 ± 0.085
DLKSKGLIPADATFAGH [FAS1],3.04 ± 0.092,3.01 ± 0.074,3.07 ± 0.12,2.98 ± 0.065
DLMDDMSDISDLDDLGF [RPN3],1.82 ± 0.098,1.89 ± 0.081,1.57 ± 0.14,1.74 ± 0.075
DLSMVPKMKDEEYDDDD [SNF2],2.9 ± 0.13,3.22 ± 0.14,3.24 ± 0.098,2.99 ± 0.12
DLSTLVHSSSPSTSSNM [GAL11],2.77 ± 0.066,2.91 ± 0.069,2.71 ± 0.082,2.78 ± 0.039

Sequence,protein stability index (doa10∆),protein stability index (pdr5∆),protein stability index (san1∆),protein stability index (ubr1∆)
DLVHIKDSLDNTFVTRL [RPS4A],2.79 ± 0.12,2.83 ± 0.091,3 ± 0.094,3.04 ± 0.058
DLVLQILEDTATMSVFL [RRI2],2.86 ± 0.063,2.36 ± 0.055,2.98 ± 0.054,2.71 ± 0.038
DNETPSKKTSPKATSSA [YOR098C/NUP1],2.1 ± 0.05,2.52 ± 0.049,2.41 ± 0.064,3.026 ± 0.029
DNEVQRTMLELITQLDG [RPT1],2.55 ± 0.12,3.21 ± 0.12,2.79 ± 0.14,2.67 ± 0.15
DNKIDIYQIHIPYAAKL [RPB2],3.16 ± 0.082,2.5 ± 0.11,3.15 ± 0.092,2.92 ± 0.063
DNKINEIKLLEISCKQW [CSI1],2.54 ± 0.18,2.43 ± 0.17,2.17 ± 0.12,2.45 ± 0.12
DNLFGETESSVSNNEAN [SWI3],3.55 ± 0.16,2.92 ± 0.089,,2.89 ± 0.083
DNTVRTSANGIVQFTYG [RPO31],2.67 ± 0.1,2.76 ± 0.1,2.25 ± 0.17,2.53 ± 0.11
DNVDFILSNVDLAMANS [RPB3],3.07 ± 0.057,3.08 ± 0.054,3.12 ± 0.064,2.97 ± 0.05
DPDIPMTIDLEPIEESS [IRR1],3.06 ± 0.086,3.45 ± 0.1,3.01 ± 0.13,3.15 ± 0.11
DPDKLKPNDLVGVNKDS [RPT5],3.18 ± 0.11,3.32 ± 0.13,3.34 ± 0.055,3.41 ± 0.098
DPIWQHQSLGPDGLGEV [RET1],2.96 ± 0.11,3.13 ± 0.11,3.04 ± 0.11,3.35 ± 0.15
DPLVSLMMVEKVPDSTY [RPT6],2.59 ± 0.087,2.93 ± 0.064,2.49 ± 0.069,2.89 ± 0.063
DPQPFLKHVLQLIFRQQ [SNU114],1.38 ± 0.042,2.02 ± 0.052,2.44 ± 0.064,2.51 ± 0.038
DQAMEKKPSPQTIPIQI [YGR119C/NUP57],,2.85 ± 0.24,,
DQDSAVVSSNIKKIVAD [QCR2],,,,3.14 ± 0.14
DQIEKLREVVELPLLSP [RPT1],2.76 ± 0.075,3 ± 0.054,2.87 ± 0.061,2.94 ± 0.073
DQLAVSPEQIDASPDSL [YCS4],1.62 ± 0.071,1.89 ± 0.081,1.65 ± 0.1,1.86 ± 0.06
DQLEDLREHFKNTEEGK [QCR6],2.75 ± 0.27,3.51 ± 0.14,3.36 ± 0.072,
DQLSTISMILRNISFSD [SWI1],1.85 ± 0.052,2.44 ± 0.072,2.04 ± 0.069,2.31 ± 0.051
DQWYCIDKLEDLSRIMD [ITC1],2.65 ± 0.26,2.64 ± 0.22,,
DRDALSGWGAVVYIIKK [PUP3],3.12 ± 0.081,2.96 ± 0.063,2.99 ± 0.06,3.13 ± 0.056
DRINYTETALMNLKKEL [SRB5],3.14 ± 0.14,3.28 ± 0.16,3.41 ± 0.088,3.18 ± 0.095
DRMAKYLHIRDKILQLN [PGD1],2.32 ± 0.12,2.01 ± 0.079,1.76 ± 0.099,1.77 ± 0.049
DRSASRAVFLFRCKETH [RPC82],1.77 ± 0.084,3.07 ± 0.15,,3.02 ± 0.17
DSEKRNKYAAMLTSENA [RRP45],2.97 ± 0.068,3.02 ± 0.063,3.14 ± 0.067,2.92 ± 0.04
DSGRGAPLAKVVFRDPY [RPL2A],3.06 ± 0.12,2.83 ± 0.13,3.03 ± 0.072,3.01 ± 0.067
